The values that follow come from patent US7879338B2, “Vectors and methods for immunization against norovirus using transgenic plants” (Boyce Thompson Institute for Plant Research, priority 2003, dated 2011).

One data set deals with mice. In words: Oral immunogenicity of tomato sNV110-2 powder versus gavaged iNV VLPs. It is filed as in vivo, mouse. Here is the method:
FIGS. 23A-B show the immunologic response of mice to rNV-transgenic tomato. […] Five mice in each group ingested 1.2 g, 1.5 g or 2.3 g of tomato powder mixed with 0.6 volume of water, on days 1, 4, 17, and 20. One group was gavaged with 100 g iNV VLPs each. Nontransgenic tomato powder was fed to a negative control group. […] Standard errors were calculated on the log-transformed titers.
Three doses of tomato sNV110-2 powder (1.5 gm, 2.5 gm, or 5 gm) were provided on days 1, 4, 17, and 20. The actual doses ingested by each mouse were, on average, 1.2, 1.5 and 2.2 gm each feeding, containing 192, 240, and 352 μg rNV/dose, respectively, or 60, 75, and 1101 g VLPs/dose. Nontransgenic tomato TA234 powder (5 gram per mouse per feed) were given to one control group (−), and 100 μg purified iNV VLPs were orally administered by gavage to another control group (+). Serum and fecal antibodies were measured by ELISA, and GMTs were calculated for each group of mice. All pre-immune serum and fecal samples were negative for rNV-specific IgG and IgA, as were control group (−) (titers<20; the lowest dilution tested). […] No significant difference (p=0.05) in primary titers was observed among groups. […] Intestinal antibody responses reached their peaks at 27 dpi with IgA GMTs ranging from 10681 to 19127. […] In contrast, the control i-rNV gavage group had their maximum levels of IgG GMT=826 and IgA GMT=1748, which were 8.2 and 6.2 fold less than the group that ingested 1.2 gram of sNV110-2 powder (p<0.0183). Further, long-term serum antibody responses declined to baseline in 3 months (IgG GMT=58 at 87 dpi).

The conditions of data set [1]: low pH, lyophilized, stored long term at 4° C.; cited from earlier work.
[2] abbreviates: day 11, gavage of purified iNV VLPs (100 μg).

B1: iNV VLPs: purified insect cell (baculovirus) derived recombinant Norwalk virus virus-like particles, control reference antigen (protein)
chain: MMMASKDATSSVDGASGAGQLVPEVNASDPLAMDPVAGSSTAVATAGQVNPIDPWIINNFVQAPQGEFTISPNNTPGDVLFDLSLGPHLNPFLLHLSQMYNGWVGNMRVRIMLAGNAFTAGKIIVSCIPPGFGSHNLTIAQATLFPHVIADVRTLDPIEVPLEDVRNVLFHNNDRNQQTMRLVCMLYTPLRTGGGTGDSFVVAGRVMTCPSPDFNFLFLVPPTVEQKTRPFTLPNLPLSSLSNSRAPLPISSMGISPDNVQSVQFQNGRCTLDGRLVGTTPVSLSHVAKIRGTSNGTVINLTELDGTPFHPFEGPAPIGFPDLGGCDWHINMTQFGHSSQTQYDVDTTPDTFVPHLGSIQANGIGSGNYVGVLSWISPPSHPSGSQVDLWKIPNYGSSITEATHLAPSVYPPGFGEVLVFFMSKMPGPGAYNLPCLLPQEYISHLASEQAPTVGEAALLHYVDPDTGRNLGEFKAYPDGFLTCVPNGASSGPQQLPINGVFVFVSWVSRFYQLKPVGTASSARGRLGLRR
Take B1: in the data set with mice (setting [2]), the “IgA GMT” value amounted to 62, the “IgG GMT” value amounted to 18, the “mice with primary intestinal antibody responses” value is recorded as 2 of 5 and the “mice with primary serum antibody responses” value is 1 of 5. Moreover, in the data set on mice (i-rNV gavage control group), the “maximum IgA GMT” value was 1748 and the “maximum IgG GMT” value is listed as 826. Also, the “long-term IgG GMT” value with mice (i-rNV gavage group, 87 dpi) is 58. Also, in the data set on mice (p<0.0183), the “maximum IgA GMT, fold less than group ingesting 1.2 gram sNV110-2 powder” value turned out to be 6.2 fold and the “maximum IgG GMT, fold less than group ingesting 1.2 gram sNV110-2 powder” value amounted to 8.2 fold. In data set [1], the stability result was “stable”.
